This note sets out measurements from patent US7067646 (Dana-Farber, dated 2006).

For one assay, the target named is T1, GST-RB (379-928) (UniProt P06400 379-928).
T1 construct: Expressed in E. coli; also called large pocket domain of RB as GST fusion; not shown: glutathione S-transferase (GST) fusion partner of vector pGEX6P-1
T1 sequence (looked up): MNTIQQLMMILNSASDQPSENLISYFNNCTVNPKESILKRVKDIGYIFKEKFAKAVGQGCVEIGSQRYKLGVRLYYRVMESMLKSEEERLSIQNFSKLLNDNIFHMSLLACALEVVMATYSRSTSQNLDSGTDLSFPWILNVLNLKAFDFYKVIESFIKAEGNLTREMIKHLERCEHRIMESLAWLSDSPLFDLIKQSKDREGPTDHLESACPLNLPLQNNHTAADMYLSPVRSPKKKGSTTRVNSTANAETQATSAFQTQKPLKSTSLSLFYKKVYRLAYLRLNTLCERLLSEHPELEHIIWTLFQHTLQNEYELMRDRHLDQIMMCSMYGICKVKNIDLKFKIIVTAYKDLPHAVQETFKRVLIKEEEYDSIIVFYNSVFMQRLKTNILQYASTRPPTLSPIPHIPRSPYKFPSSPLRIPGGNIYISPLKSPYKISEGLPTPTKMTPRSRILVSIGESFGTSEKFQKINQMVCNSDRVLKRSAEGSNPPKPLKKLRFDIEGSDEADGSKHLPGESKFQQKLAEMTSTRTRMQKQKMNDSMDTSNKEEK
Put plainly: GST-RB (379-928) pull-down of His-tagged fragment from E. coli, Coomassie stain and anti-His immunoblot.

The target in assay [1] is T2, MTAF600 (microtubule associated factor 600) (human, UniProt Q5T4S7 1-5183).
T2 construct: Native endogenous protein of HeLa nuclear extracts (5183 residues); also called MT-associated factor (MTAF) 600; 600 kDa subunit
The assay can be described thus: immunoprecipitation with p107 antibody from HeLa extract, anti-MTAF600 immunoblot.

For assay [2], the target named is T2, MTAF600 (microtubule associated factor …). The assay can be described thus: anti-FLAG immunoprecipitation of C-terminally tagged RB from HeLa cells.
The target is the same in assay [3]. Put plainly: immunoprecipitation with p130 antibody from HeLa extract, anti-MTAF600 immunoblot.

T2 sequence (Q5T4S7 other isoform, or with tags, fused parts or gaps limits assumed): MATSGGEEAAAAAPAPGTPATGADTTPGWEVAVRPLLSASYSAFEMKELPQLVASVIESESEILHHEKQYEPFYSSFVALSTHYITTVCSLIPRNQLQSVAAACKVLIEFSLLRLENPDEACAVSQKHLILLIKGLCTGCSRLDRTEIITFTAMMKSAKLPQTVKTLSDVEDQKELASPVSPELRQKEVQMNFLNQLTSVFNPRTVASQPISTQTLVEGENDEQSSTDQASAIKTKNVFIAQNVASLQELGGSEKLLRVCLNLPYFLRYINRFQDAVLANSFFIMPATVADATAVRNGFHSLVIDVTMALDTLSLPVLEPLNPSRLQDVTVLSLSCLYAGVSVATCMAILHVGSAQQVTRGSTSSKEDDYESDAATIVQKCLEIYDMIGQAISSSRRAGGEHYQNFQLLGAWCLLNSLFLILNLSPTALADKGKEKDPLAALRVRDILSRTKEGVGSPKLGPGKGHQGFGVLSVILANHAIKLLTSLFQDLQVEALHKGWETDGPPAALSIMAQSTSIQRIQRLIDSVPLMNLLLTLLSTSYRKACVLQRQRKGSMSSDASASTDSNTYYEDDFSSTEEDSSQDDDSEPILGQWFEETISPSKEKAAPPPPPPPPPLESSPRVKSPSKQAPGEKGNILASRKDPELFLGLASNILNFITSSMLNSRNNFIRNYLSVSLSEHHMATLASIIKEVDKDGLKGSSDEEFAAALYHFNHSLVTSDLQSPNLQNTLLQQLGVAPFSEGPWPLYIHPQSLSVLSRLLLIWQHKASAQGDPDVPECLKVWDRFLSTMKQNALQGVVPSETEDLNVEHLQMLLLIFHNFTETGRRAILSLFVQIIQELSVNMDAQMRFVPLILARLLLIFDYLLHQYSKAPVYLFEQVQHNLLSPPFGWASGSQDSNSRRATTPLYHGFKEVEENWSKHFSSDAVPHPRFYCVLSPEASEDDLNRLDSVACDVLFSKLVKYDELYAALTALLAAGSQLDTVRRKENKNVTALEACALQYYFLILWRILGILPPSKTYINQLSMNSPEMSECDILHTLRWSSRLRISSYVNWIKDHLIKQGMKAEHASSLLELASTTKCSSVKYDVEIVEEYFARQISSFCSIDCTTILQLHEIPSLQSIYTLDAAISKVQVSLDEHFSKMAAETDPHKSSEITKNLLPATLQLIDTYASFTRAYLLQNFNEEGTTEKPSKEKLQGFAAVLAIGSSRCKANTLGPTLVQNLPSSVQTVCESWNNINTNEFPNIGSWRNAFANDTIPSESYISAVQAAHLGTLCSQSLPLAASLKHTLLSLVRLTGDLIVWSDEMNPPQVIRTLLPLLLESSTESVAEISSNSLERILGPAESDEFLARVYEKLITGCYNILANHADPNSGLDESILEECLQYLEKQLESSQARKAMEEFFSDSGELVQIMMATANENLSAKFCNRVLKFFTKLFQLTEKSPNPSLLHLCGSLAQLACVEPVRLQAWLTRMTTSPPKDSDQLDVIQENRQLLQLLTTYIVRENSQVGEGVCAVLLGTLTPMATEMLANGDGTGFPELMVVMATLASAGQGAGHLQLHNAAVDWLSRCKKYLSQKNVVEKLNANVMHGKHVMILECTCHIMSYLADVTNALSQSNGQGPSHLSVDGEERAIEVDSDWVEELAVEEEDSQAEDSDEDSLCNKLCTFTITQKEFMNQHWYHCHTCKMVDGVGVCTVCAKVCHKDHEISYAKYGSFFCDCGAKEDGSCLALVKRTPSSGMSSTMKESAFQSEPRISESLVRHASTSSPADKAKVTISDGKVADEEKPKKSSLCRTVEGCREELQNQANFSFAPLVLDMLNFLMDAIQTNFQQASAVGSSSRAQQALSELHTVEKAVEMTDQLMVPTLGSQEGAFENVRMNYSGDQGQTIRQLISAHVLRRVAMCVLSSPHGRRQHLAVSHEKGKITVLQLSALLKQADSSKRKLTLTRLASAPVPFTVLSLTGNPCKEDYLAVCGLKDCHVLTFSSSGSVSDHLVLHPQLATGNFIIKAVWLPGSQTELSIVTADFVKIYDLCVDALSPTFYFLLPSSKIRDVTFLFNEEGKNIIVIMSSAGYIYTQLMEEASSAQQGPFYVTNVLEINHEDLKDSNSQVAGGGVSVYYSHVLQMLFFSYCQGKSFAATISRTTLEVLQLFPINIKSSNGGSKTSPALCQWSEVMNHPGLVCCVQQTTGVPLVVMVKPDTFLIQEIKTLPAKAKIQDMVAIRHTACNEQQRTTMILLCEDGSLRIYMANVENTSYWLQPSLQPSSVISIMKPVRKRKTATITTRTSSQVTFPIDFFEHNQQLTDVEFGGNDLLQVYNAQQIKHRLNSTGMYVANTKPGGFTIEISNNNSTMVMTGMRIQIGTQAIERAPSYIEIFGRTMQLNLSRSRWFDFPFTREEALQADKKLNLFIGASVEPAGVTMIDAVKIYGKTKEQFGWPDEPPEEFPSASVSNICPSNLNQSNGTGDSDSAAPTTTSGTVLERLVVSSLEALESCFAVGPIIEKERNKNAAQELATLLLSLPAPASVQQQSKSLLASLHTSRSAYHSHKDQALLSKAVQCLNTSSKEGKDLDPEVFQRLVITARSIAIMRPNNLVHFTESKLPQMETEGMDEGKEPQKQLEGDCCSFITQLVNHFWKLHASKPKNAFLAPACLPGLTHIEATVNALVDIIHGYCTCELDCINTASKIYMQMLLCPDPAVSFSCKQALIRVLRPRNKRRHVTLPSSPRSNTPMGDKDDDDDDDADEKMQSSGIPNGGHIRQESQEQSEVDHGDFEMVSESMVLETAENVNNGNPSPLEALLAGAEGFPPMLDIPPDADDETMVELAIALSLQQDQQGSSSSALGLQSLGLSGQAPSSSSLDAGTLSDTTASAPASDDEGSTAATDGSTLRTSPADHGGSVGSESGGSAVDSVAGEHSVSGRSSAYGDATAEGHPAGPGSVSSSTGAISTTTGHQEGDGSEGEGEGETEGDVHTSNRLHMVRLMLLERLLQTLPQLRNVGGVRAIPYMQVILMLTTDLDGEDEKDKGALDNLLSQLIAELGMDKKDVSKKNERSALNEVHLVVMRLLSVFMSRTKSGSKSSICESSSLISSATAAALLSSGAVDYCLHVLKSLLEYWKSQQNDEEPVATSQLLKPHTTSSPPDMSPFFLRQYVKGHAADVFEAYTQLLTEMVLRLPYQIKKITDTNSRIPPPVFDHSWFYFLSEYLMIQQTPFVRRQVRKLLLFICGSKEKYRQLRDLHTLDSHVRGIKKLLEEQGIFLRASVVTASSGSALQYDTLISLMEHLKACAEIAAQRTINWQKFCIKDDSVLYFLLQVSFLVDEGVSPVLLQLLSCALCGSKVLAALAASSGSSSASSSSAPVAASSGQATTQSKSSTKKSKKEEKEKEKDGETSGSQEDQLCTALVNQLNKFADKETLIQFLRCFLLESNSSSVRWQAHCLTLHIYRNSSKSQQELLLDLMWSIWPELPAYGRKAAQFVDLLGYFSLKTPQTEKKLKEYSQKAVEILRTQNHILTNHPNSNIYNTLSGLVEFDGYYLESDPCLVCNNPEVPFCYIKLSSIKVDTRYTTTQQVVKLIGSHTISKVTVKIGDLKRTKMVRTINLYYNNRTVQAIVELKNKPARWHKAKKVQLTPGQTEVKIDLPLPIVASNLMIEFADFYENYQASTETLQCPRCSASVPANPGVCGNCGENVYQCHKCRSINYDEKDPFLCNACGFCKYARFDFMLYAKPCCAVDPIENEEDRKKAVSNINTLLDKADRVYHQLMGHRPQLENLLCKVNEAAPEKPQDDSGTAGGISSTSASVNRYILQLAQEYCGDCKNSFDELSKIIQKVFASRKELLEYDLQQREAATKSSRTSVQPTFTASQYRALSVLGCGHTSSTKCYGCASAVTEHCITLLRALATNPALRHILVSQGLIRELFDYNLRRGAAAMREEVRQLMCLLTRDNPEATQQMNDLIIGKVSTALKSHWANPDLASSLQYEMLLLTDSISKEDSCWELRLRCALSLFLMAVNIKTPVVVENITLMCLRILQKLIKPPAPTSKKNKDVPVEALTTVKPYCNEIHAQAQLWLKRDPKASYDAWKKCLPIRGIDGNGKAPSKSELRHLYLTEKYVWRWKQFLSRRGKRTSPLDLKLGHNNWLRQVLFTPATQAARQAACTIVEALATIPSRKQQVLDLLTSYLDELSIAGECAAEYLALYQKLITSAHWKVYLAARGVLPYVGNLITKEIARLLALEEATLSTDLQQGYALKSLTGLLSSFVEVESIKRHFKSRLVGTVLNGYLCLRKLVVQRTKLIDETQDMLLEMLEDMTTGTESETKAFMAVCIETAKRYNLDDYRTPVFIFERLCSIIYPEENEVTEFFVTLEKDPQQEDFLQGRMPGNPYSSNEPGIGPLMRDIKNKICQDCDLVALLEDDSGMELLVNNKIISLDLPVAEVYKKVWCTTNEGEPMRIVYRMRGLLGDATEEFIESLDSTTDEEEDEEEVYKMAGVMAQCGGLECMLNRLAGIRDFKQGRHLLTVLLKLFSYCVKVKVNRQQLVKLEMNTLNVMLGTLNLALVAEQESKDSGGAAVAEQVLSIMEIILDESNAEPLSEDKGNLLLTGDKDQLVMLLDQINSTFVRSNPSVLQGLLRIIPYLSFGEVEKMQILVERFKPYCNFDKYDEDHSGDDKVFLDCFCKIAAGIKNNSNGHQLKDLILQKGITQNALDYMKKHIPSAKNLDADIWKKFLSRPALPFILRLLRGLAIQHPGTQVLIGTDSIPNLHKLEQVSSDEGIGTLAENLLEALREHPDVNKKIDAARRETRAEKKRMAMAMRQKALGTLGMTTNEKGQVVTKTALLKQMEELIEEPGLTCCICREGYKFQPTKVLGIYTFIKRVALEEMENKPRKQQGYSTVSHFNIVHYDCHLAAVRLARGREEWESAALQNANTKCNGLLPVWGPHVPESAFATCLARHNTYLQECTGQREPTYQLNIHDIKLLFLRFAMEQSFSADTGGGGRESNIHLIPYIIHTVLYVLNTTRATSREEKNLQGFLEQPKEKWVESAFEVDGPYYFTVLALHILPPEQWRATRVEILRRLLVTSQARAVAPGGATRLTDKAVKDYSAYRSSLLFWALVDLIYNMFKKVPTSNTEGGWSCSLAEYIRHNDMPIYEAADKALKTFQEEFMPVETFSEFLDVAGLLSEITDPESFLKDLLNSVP

B1: His-tagged MTAF600 (4529-4851) (other)
chain: EMNTLNVMLGTLNLALVAEQESKDSGGAAVAEQVLSIMEIILDESNAEPLSEDKGNLLLTGDKDQLVMLLDQINSTFVRSNPSVLQGLLRIIPYLSFGEVEKMQILVERFKPYCNFDKYDEDHSGDDKVFLDCFCKIAAGIKNNSNGHQLKDLILQKGITQNALDYMKKHIPSAKNLDADIWKKFLSRPALPFILRLLRGLAIQHPGTQVLIGTDSIPNLHKLEQVSSDEGIGTLAENLLEALREHPDVNKKIDAARRETRAEKKRMAMAMRQKALGTLGMTTNEKGQVVTKTALLKQMEELIEEPGLTCCICREGYKFQPTK
notes: Expressed in E. coli; not shown: His tag of vector pET28c
In the case of B1, in the assay with GST-RB (379-928), the binding result is on record as “no binding”.

B2: p107, endogenous, HeLa extract (other, UniProt P28749 1-1068, looked up)
chain: MFEDKPHAEGAAVVAAAGEALQALCQELNLDEGSAAEALDDFTAIRGNYSLEGEVTHWLACSLYVACRKSIIPTVGKGIMEGNCVSLTRILRSAKLSLIQFFSKMKKWMDMSNLPQEFRERIERLERNFEVSTVIFKKYEPIFLDIFQNPYEEPPKLPRSRKQRRIPCSVKDLFNFCWTLFVYTKGNFRMIGDDLVNSYHLLLCCLDLIFANAIMCPNRQDLLNPSFKGLPSDFHTADFTASEEPPCIIAVLCELHDGLLVEAKGIKEHYFKPYISKLFDRKILKGECLLDLSSFTDNSKAVNKEYEEYVLTVGDFDERIFLGADAEEEIGTPRKFTRDTPLGKLTAQANVEYNLQQHFEKKRSFAPSTPLTGRRYLREKEAVITPVASATQSVSRLQSIVAGLKNAPSDQLINIFESCVRNPVENIMKILKGIGETFCQHYTQSTDEQPGSHIDFAVNRLKLAEILYYKILETVMVQETRRLHGMDMSVLLEQDIFHRSLMACCLEIVLFAYSSPRTFPWIIEVLNLQPFYFYKVIEVVIRSEEGLSRDMVKHLNSIEEQILESLAWSHDSALWEALQVSANKVPTCEEVIFPNNFETGNGGNVQGHLPLMPMSPLMHPRVKEVRTDSGSLRRDMQPLSPISVHERYSSPTAGSAKRRLFGEDPPKEMLMDKIITEGTKLKIAPSSSITAENVSILPGQTLLTMATAPVTGTTGHKVTIPLHGVANDAGEITLIPLSMNTNQESKVKSPVSLTAHSLIGASPKQTNLTKAQEVHSTGINRPKRTGSLALFYRKVYHLASVRLRDLCLKLDVSNELRRKIWTCFEFTLVHCPDLMKDRHLDQLLLCAFYIMAKVTKEERTFQEIMKSYRNQPQANSHVYRSVLLKSIPREVVAYNKNINDDFEMIDCDLEDATKTPDCSSGPVKEERGDLIKFYNTIYVGRVKSFALKYDLANQDHMMDAPPLSPFPHIKQQPGSPRRISQQHSIYISPHKNGSGLTPRSALLYKFNGSPSKSLKDINNMIRQGEQRTKKRVIAIDSDAESPAKRVCQENDDVLLKRLQDVVSERANH
Turning to B2, in assay [1], the binding result was “binds”.

B3: RB with the FLAG tag at the C-terminus (other, UniProt P06400 2-928, looked up, not shown: small tags and cut ends)
chain: PPKTPRKTAATAAAAAAEPPAPPPPPPPEEDPEQDSGPEDLPLVRLEFEETEEPDFTALCQKLKIPDHVRERAWLTWEKVSSVDGVLGGYIQKKKELWGICIFIAAVDLDEMSFTFTELQKNIEISVHKFFNLLKEIDTSTKVDNAMSRLLKKYDVLFALFSKLERTCELIYLTQPSSSISTEINSALVLKVSWITFLLAKGEVLQMEDDLVISFQLMLCVLDYFIKLSPPMLLKEPYKTAVIPINGSPRTPRRGQNRSARIAKQLENDTRIIEVLCKEHECNIDEVKNVYFKNFIPFMNSLGLVTSNGLPEVENLSKRYEEIYLKNKDLDARLFLDHDKTLQTDSIDSFETQRTPRKSNLDEEVNVIPPHTPVRTVMNTIQQLMMILNSASDQPSENLISYFNNCTVNPKESILKRVKDIGYIFKEKFAKAVGQGCVEIGSQRYKLGVRLYYRVMESMLKSEEERLSIQNFSKLLNDNIFHMSLLACALEVVMATYSRSTSQNLDSGTDLSFPWILNVLNLKAFDFYKVIESFIKAEGNLTREMIKHLERCEHRIMESLAWLSDSPLFDLIKQSKDREGPTDHLESACPLNLPLQNNHTAADMYLSPVRSPKKKGSTTRVNSTANAETQATSAFQTQKPLKSTSLSLFYKKVYRLAYLRLNTLCERLLSEHPELEHIIWTLFQHTLQNEYELMRDRHLDQIMMCSMYGICKVKNIDLKFKIIVTAYKDLPHAVQETFKRVLIKEEEYDSIIVFYNSVFMQRLKTNILQYASTRPPTLSPIPHIPRSPYKFPSSPLRIPGGNIYISPLKSPYKISEGLPTPTKMTPRSRILVSIGESFGTSEKFQKINQMVCNSDRVLKRSAEGSNPPKPLKKLRFDIEGSDEADGSKHLPGESKFQQKLAEMTSTRTRMQKQKMNDSMDTSNKEEK
notes: also called C-terminally tagged RB
With B3, the binding result in assay [2] is reported as “binds”.

B4: p130, endogenous, HeLa extract (other, UniProt Q08999 1-1139, looked up)
chain: MPSGGDQSPPPPPPPPAAAASDEEEEDDGEAEDAAPPAESPTPQIQQRFDELCSRLNMDEAARAEAWDSYRSMSESYTLEGNDLHWLACALYVACRKSVPTVSKGTVEGNYVSLTRILKCSEQSLIEFFNKMKKWEDMANLPPHFRERTERLERNFTVSAVIFKKYEPIFQDIFKYPQEEQPRQQRGRKQRRQPCTVSEIFHFCWVLFIYAKGNFPMISDDLVNSYHLLLCALDLVYGNALQCSNRKELVNPNFKGLSEDFHAKDSKPSSDPPCIIEKLCSLHDGLVLEAKGIKEHFWKPYIRKLYEKKLLKGKEENLTGFLEPGNFGESFKAINKAYEEYVLSVGNLDERIFLGEDAEEEIGTLSRCLNAGSGTETAERVQMKNILQQHFDKSKALRISTPLTGVRYIKENSPCVTPVSTATHSLSRLHTMLTGLRNAPSEKLEQILRTCSRDPTQAIANRLKEMFEIYSQHFQPDEDFSNCAKEIASKHFRFAEMLYYKVLESVIEQEQKRLGDMDLSGILEQDAFHRSLLACCLEVVTFSYKPPGNFPFITEIFDVPLYHFYKVIEVFIRAEDGLCREVVKHLNQIEEQILDHLAWKPESPLWEKIRDNENRVPTCEEVMPPQNLERADEICIAGSPLTPRRVTEVRADTGGLGRSITSPTTLYDRYSSPPASTTRRRLFVENDSPSDGGTPGRMPPQPLVNAVPVQNVSGETVSVTPVPGQTLVTMATATVTANNGQTVTIPVQGIANENGGITFFPVQVNVGGQAQAVTGSIQPLSAQALAGSLSSQQVTGTTLQVPGQVAIQQISPGGQQQKQGQSVTSSSNRPRKTSSLSLFFRKVYHLAAVRLRDLCAKLDISDELRKKIWTCFEFSIIQCPELMMDRHLDQLLMCAIYVMAKVTKEDKSFQNIMRCYRTQPQARSQVYRSVLIKGKRKRRNSGSSDSRSHQNSPTELNKDRTSRDSSPVMRSSSTLPVPQPSSAPPTPTRLTGANSDMEEEERGDLIQFYNNIYIKQIKTFAMKYSQANMDAPPLSPYPFVRTGSPRRIQLSQNHPVYISPHKNETMLSPREKIFYYFSNSPSKRLREINSMIRTGETPTKKRGILLEDGSESPAKRICPENHSALLRRLQDVANDRGSH
Turning to B4, in assay [3], the binding result is on record as “binds”.
